Measurements reported in patent US20230192899A1 (published 2023).

Assays:
[1] = molecular target: human CD47 on cells (human erythrocytes, MCF-7, BT-474) (human, UniProt Q08722 19-323); test: cell-based or functional assay
[2] = molecular target: T1, mouse membrane-presented CD47 on Tg32 mouse erythrocytes (mouse, UniProt Q61735 19-303); test: flow cytometry on Tg32 mouse erythrocytes (FIG. 21)
T1 construct: whole, on cells
T1 sequence (looked up): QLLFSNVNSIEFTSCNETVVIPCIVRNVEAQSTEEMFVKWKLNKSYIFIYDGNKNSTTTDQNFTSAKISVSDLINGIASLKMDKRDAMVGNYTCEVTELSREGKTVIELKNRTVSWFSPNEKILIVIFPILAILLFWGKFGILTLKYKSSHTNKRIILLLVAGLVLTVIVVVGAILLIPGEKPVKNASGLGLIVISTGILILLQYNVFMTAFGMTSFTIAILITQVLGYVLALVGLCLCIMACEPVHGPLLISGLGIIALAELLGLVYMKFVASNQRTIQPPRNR

[3] = molecular target: T2, human CD47 protein (ELISA coat) (human, UniProt Q08722 19-139); test: direct binding ELISA (FIG. 7C)
T2 construct: also called hCD47

[4] = molecular target: human C-MET protein (ELISA coat) (human, UniProt P08581 25-932); test: direct binding ELISA (FIG. 7C)
human C-MET protein (ELISA coat), sequence (P08581 25-932 limits assumed): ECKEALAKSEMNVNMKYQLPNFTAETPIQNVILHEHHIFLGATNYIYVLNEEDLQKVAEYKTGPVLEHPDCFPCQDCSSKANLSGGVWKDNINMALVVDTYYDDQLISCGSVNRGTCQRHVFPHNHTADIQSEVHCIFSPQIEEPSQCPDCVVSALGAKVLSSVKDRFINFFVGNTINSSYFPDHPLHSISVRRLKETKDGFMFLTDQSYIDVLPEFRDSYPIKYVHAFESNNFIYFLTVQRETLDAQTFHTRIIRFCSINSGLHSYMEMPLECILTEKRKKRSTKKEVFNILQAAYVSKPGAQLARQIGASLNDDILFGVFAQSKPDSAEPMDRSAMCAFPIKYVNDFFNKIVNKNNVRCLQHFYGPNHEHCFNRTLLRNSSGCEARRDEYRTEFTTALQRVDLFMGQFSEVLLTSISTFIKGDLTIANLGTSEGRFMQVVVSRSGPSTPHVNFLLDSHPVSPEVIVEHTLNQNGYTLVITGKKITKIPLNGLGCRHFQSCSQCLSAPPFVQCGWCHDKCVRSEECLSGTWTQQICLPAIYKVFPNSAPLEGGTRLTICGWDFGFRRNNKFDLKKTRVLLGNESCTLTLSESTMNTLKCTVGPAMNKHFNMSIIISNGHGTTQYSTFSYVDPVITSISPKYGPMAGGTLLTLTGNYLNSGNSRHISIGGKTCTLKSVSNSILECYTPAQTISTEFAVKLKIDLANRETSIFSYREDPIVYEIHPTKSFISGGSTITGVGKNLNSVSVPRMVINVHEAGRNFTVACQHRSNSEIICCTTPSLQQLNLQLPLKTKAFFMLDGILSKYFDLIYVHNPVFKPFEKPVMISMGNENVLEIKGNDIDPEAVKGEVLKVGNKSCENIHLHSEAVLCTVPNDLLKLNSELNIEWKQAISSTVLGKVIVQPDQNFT

[5] = molecular target: T3, soluble human CD47 ectodomain protein (human, UniProt Q08722 19-139); test: SPR (Biacore), IgG captured via anti-Fc; run at end
T3 construct: also called hCD47; huCD47

[6] = molecular target: T3, soluble human CD47 ectodomain protein; test: SPR (Biacore), IgG captured via anti-Fc; run at beginning

B1: Fab^2 cMETCD47-L2-L2 (bispecific antibody)
heavy: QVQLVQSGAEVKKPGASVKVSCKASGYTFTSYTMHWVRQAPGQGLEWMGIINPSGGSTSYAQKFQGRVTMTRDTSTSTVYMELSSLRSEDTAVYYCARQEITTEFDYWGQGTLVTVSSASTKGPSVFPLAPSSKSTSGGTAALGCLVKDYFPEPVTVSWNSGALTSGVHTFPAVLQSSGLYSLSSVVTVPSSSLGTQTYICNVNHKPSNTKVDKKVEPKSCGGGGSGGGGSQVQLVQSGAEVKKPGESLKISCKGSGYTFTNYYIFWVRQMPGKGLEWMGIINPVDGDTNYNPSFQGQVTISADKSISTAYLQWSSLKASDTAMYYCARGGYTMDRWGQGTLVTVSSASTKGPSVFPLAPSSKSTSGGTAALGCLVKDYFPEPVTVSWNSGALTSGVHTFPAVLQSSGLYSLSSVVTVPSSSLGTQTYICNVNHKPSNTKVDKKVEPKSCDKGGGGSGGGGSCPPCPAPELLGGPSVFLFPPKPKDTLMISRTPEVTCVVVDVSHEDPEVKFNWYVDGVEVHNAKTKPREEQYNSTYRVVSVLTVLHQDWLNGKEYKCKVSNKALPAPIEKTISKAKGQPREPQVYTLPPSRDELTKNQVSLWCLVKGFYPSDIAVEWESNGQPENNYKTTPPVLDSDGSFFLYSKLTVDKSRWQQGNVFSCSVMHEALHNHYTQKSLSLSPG
light: EIVLTQSPGTLSLSPGERATLSCRASQSVSSYANSYLHWYQQKPGQAPRLLIYRGSTRESGIPDRFSGSGSGTDFTLTISRLEPEDFAVYYCQQSKSEPLTFGGGTKVEIKRTVAAPSVFIFPPSDEQLKSGTASVVCLLNNFYPREAKVQWKVDNALQSGNSQESVTEQDSKDSTYSLSSTLTLSKADYEKHKVYACEVTHQGLSSPVTKSFNRGECGGGGSGGGGSDIVMTQSPLSLPVTPGEPASISCRSSQSLLHSNGYNYLHWYLQKPGQSPQLLIYKVSNRLSGVPDRFSGSGSGTDFTLKISRVEAEDVGVYYCFQNTHTPRTFGGGTKVEIKRTVAAPSVFIFPPSDEQLKSGTASVVCLLNNFYPREAKVQWKVDNALQSGNSQESVTEQDSKDSTYSLSSTLTLSKADYEKHKVYACEVTHQGLSSPVTKSFNRGECGGGGSGGGGSCPPCPAPELLGGPSVFLFPPKPKDTLMISRTPEVTCVVVDVSHEDPEVKFNWYVDGVEVHNAKTKPREEQYNSTYRVVSVLTVLHQDWLNGKEYKCKVSNKALPAPIEKTISKAKGQPREPQVYTLPPSRDELTKNQVSLSCAVKGFYPSDIAVEWESNGQPENNYKTTPPVLDSDGSFFLVSKLTVDKSRWQQGNVFSCSVMHEALHNHYTQKSLSLSPG
[1]
  fold reduction of ability to induce agglutination in comparison to A-D5 IgG1: > 241 fold

B2: Fab^2 Met47 LHL-LHL (as used in the Tg32 mouse studies) (bispecific antibody, not shown: a dimerising Fc or GST)
heavy: QVQLVQSGAEVKKPGASVKVSCKASGYTFTSYTMHWVRQAPGQGLEWMGIINPSGGSTSYAQKFQGRVTMTRDTSTSTVYMELSSLRSEDTAVYYCARQEITTEFDYWGQGTLVTVSSASTKGPSVFPLAPSSKSTSGGTAALGCLVKDYFPEPVTVSWNSGALTSGVHTFPAVLQSSGLYSLSSVVTVPSSSLGTQTYICNVNHKPSNTKVDKKVEPKSCGPAPELLGGGSQVQLVQSGAEVKKPGESLKISCKGSGYTFTNYYIFWVRQMPGKGLEWMGIINPVDGDTNYNPSFQGQVTISADKSISTAYLQWSSLKASDTAMYYCARGGYTMDRWGQGTLVTVSS
light: EIVLTQSPGTLSLSPGERATLSCRASQSVSSYANSYLHWYQQKPGQAPRLLIYRGSTRESGIPDRFSGSGSGTDFTLTISRLEPEDFAVYYCQQSKSEPLTFGGGTKVEIKRTVAAPSVFIFPPSDEQLKSGTASVVCLLNNFYPREAKVQWKVDNALQSGNSQESVTEQDSKDSTYSLSSTLTLSKADYEKHKVYACEVTHQGLSSPVTKSFNRGECGPAPELLGGGSDIVMTQSPLSLPVTPGEPASISCRSSQSLLHSNGYNYLHWYLQKPGQSPQLLIYKVSNRLSGVPDRFSGSGSGTDFTLKISRVEAEDVGVYYCFQNTHTPRTFGGGTKVEIK
[2]
  binding result: no binding (tested: 10 µg/ml)

B3: Fab^2 cMETCD47-LHL-LHL (bispecific antibody)
heavy: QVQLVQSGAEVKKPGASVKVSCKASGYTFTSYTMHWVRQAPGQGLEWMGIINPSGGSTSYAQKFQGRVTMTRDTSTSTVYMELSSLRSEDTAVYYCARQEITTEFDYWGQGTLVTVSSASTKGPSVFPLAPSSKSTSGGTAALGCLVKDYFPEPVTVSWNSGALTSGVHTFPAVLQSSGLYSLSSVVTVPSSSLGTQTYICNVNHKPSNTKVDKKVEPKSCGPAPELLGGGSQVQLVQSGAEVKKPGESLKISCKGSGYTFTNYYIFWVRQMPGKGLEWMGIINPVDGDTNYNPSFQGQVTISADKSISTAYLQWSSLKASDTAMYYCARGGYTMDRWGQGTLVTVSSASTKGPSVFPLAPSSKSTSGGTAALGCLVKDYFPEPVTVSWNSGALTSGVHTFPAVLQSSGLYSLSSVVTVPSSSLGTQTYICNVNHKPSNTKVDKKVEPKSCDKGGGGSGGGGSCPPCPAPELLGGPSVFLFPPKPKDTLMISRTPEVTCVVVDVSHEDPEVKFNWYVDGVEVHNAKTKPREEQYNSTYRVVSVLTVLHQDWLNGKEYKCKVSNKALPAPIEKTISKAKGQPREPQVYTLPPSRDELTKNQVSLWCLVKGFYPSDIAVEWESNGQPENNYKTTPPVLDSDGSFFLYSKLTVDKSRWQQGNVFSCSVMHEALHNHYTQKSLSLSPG
light: EIVLTQSPGTLSLSPGERATLSCRASQSVSSYANSYLHWYQQKPGQAPRLLIYRGSTRESGIPDRFSGSGSGTDFTLTISRLEPEDFAVYYCQQSKSEPLTFGGGTKVEIKRTVAAPSVFIFPPSDEQLKSGTASVVCLLNNFYPREAKVQWKVDNALQSGNSQESVTEQDSKDSTYSLSSTLTLSKADYEKHKVYACEVTHQGLSSPVTKSFNRGECGPAPELLGGGSDIVMTQSPLSLPVTPGEPASISCRSSQSLLHSNGYNYLHWYLQKPGQSPQLLIYKVSNRLSGVPDRFSGSGSGTDFTLKISRVEAEDVGVYYCFQNTHTPRTFGGGTKVEIKRTVAAPSVFIFPPSDEQLKSGTASVVCLLNNFYPREAKVQWKVDNALQSGNSQESVTEQDSKDSTYSLSSTLTLSKADYEKHKVYACEVTHQGLSSPVTKSFNRGECGGGGSGGGGSCPPCPAPELLGGPSVFLFPPKPKDTLMISRTPEVTCVVVDVSHEDPEVKFNWYVDGVEVHNAKTKPREEQYNSTYRVVSVLTVLHQDWLNGKEYKCKVSNKALPAPIEKTISKAKGQPREPQVYTLPPSRDELTKNQVSLSCAVKGFYPSDIAVEWESNGQPENNYKTTPPVLDSDGSFFLVSKLTVDKSRWQQGNVFSCSVMHEALHNHYTQKSLSLSPG
notes: also called Met47-LHL-LHL; clone 6
[3]
  fold reduction of ability to bind CD47 in comparison to A-D5 IgG1: > 1000 fold
[4]
  binding result: binds
[1]
  fold reduction of ability to induce agglutination in comparison to A-D5 IgG1: > 241 fold

B4: A-D5 anti-CD47 IgG1 (antibody, V domains shown)
VH: QVQLVQSGAEVKKPGESLKISCKGSGYTFTNYYIFWVRQMPGKGLEWMGIINPVDGDTNYNPSFQGQVTISADKSISTAYLQWSSLKASDTAMYYCARGGYTMDRWGQGTLVTVSS
VL: DIVMTQSPLSLPVTPGEPASISCRSSQSLLHSNGYNYLHWYLQKPGQSPQLLIYKVSNRLSGVPDRFSGSGSGTDFTLKISRVEAEDVGVYYCFQNTHTPRTFGGGTKVEIK
notes: also called A-D5 IgG1; A-D5 CD47 IgG
[5]
  Kd: 1.32 nM
  koff: 0.00103 s⁻¹
  kon: 775000 M⁻¹ s⁻¹
[6]
  Kd: 1.29 nM
  koff: 0.00107 s⁻¹
  kon: 833000 M⁻¹ s⁻¹
